# Like-named read-outs stand apart in the source and are kept apart here.
# Tests used:
# Test in all cases: ELISA on insulin-coated plate, 100 nM
# Insulin [1] = target: Insulin (UniProt P01308)
# Insulin [2] = target: Insulin (UniProt P01308); remark: listed apart in the source
# Insulin [3] = target: Insulin (UniProt P01308); remark: listed apart in the source
# Insulin [4] = target: Insulin (UniProt P01308); remark: listed apart in the source
# Insulin [5] = target: Insulin (UniProt P01308); remark: listed apart in the source
# Insulin [6] = target: Insulin (UniProt P01308); remark: listed apart in the source
Insulin polyreactivity score (Insulin [1]),Insulin polyreactivity score (Insulin [2]),Insulin polyreactivity score (Insulin [3]),Insulin polyreactivity score (Insulin [4]),Insulin polyreactivity score (Insulin [5]),Insulin polyreactivity score (Insulin [6]),Substance
1,1.01,1.25,3.43,1.09,,Elotuzumab (antibody)
1.52,7.87,21.3,69.2,7.93,69.2,Lenzilumab (antibody)
